Experimental data taken from patent US20210122788A1 (SANFORD BURNHAM PREBYS MEDICAL DISCOVERY INSTITUTE, published 2021).

Target: T1, human HVEM Fc (human, UniProt Q92956 39-202)
T1 construct: also called wild-type HVEM-Fc; not shown: human IgG1 Fc
T1 sequence: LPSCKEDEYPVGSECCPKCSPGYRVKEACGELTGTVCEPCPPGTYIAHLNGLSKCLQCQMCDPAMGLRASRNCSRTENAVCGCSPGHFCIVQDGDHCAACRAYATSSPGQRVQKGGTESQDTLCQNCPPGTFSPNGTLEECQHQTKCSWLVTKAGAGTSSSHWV
Test: flow cytometry on EL4 cells expressing human CD160

B1: human CD160 on cells (receptor)
chain: GCINITSSASQEGTRLNLICTVWHKKEEAEGFVVFLCKDRSGDCSPETSLKQLRLKRDPGIDGVGEISSQLMFTISQVTPLHSGTYQCCARSQKSGIRLQGHFFSILFTETGNYTVTGLKQRQHLEFSHNEGTLS
notes: whole, on cells; Transduced into EL4 or 293T cells; endogenous on NK92 and blood NK cells in the functional rows
binding result: binds
